Experimental data taken from US20190307687A1.
Square brackets hold non-standard residues; d marks the D form.

Molecular target: αvβ3 integrin on TNF-α-treated bovine aortic endothelial cells (BAEC) (bovine) (UniProt P80746)
Experiment: attachment under flow in a microfluidic device coated with TNF-α-treated BAEC cells; reference RGD-targeted nanospheres

B1: RGD-NC nanoparticle (integrin-targeted nanochain of four iron oxide nanospheres carrying c(RGDfC) peptides on PEG) (peptide)
peptide: cyclo(RGD[dF]C)
modifications: not fully specified (residue 5); printed as cyclo (Arg-Gly-Asp-D-Phe-Cys); also: nanochain also tagged with VivoTag 680
With B1 the fold higher attachment compared to RGD-targeted nanospheres (after 5 min) was 9.5 fold and the fold higher attachment compared to RGD-targeted nanospheres (after 20 min) was 2.9 fold.
